Reference: patent US20140356358A1 (Amgen, published 2014)
Where a chain is given by its changes, count along the chain named. In names and notes the source's numbering stands.

B1: L5 isolate with insertion SEQ ID NO: 392 (other)
chain: EPKSCDKTHTCPPCPAPELLGGPSVFLFPPKPKDTLMISRTPEVTCVVVDVSHEDPEVKFNWYVDGVEVHNAKTKPREEQYNSTYRVVSVLTVLHQDWLNGKEYKCKVSNKALPAPIEKTISKAKGQPREPQVYTLPPSRDELTKNQVSLTCLVKGFYPSDIAVEWESNGGCPHMFPWCGGGQPENNYKTTPPVLDSDGSFFLYSKLTVDKSRWQQGNVFSCSVMHEALHNHYTQKSLSLSPGK
B2: L5 isolate with insertion SEQ ID NO: 415 (other)
chain: B1 chain with P173Y, H174I, M175T, F176Q, P177K, W178L
B3: L5 isolate with insertion SEQ ID NO: 435 (other)
chain: B1 chain with P173K, H174R, M175E, F176N, W178Y
B4: L5 isolate with insertion SEQ ID NO: 429 (other)
chain: B1 chain with H174P, M175W, F176P, P177E, W178R
B5: L5 isolate with insertion SEQ ID NO: 426 (other)
chain: B1 chain with P173M, H174Q, M175P, F176W, P177I, W178N
B6: L5 isolate with insertion SEQ ID NO: 432 (other)
chain: B1 chain with P173D, H174R, M175P, F176V, P177W, W178F
B7: L5 isolate with insertion SEQ ID NO: 423 (other)
chain: B1 chain with P173N, M175E, F176E, P177T, W178F
B8: L5 isolate with insertion SEQ ID NO: 406 (other)
chain: B1 chain with P173Y, H174Q, M175H, F176H, P177M, W178E
B9: L5 isolate with insertion SEQ ID NO: 412 (other)
chain: B1 chain with P173M, H174Q, M175P, F176W, P177A, W178F
B10: L5 isolate with insertion SEQ ID NO: 418 (other)
chain: B1 chain with P173I, H174T, M175E, P177S, W178H
B11: L5 isolate with insertion SEQ ID NO: 413 (other)
chain: B1 chain with P173M, H174T, M175Q, F176Y, P177N
B12: L5 isolate with insertion SEQ ID NO: 419 (other)
chain: B1 chain with P173Q, H174N, M175R, F176S, P177Y
B13: L5 isolate with insertion SEQ ID NO: 402 (other)
chain: B1 chain with P173E, H174L, M175Q, F176E, P177R
B14: L5 isolate with insertion SEQ ID NO: 420 (other)
chain: B1 chain with P173H, H174G, M175T, F176K, P177Q, W178F
B15: L5 isolate with insertion SEQ ID NO: 403 (other)
chain: B1 chain with H174A, M175N, F176W, P177G, W178T
B16: L5 isolate with insertion SEQ ID NO: 417 (other)
chain: B1 chain with P173T, H174E, M175Q, F176V, P177M
B17: L5 isolate with insertion SEQ ID NO: 431 (other)
chain: B1 chain with P173N, H174E, M175P, F176K, P177Y, W178V
B18: L5 isolate with insertion SEQ ID NO: 399 (other)
chain: B1 chain with P173Y, H174E, M175N, F176K, P177T, W178L
B19: L5 isolate with insertion SEQ ID NO: 398 (other)
chain: B1 chain with P173Q, H174L, M175G, F176S, P177M, W178H
B20: L5 isolate with insertion SEQ ID NO: 404 (other)
chain: B1 chain with P173M, H174M, M175E, P177A, W178Q
B21: L5 isolate with insertion SEQ ID NO: 416 (other)
chain: B1 chain with P173E, H174T, M175H, F176Y, P177T, W178Y
B22: L5 isolate with insertion SEQ ID NO: 408 (other)
chain: B1 chain with P173Q, H174K, M175G, F176W, P177V, W178F
B23: L5 isolate with insertion SEQ ID NO: 409 (other)
chain: B1 chain with P173V, H174Y, M175D, F176V, P177K, W178K
B24: L5 isolate with insertion SEQ ID NO: 395 (other)
chain: B1 chain with P173I, H174L, M175N, P177Y, W178G
B25: L5 isolate with insertion SEQ ID NO: 425 (other)
chain: B1 chain with P173I, H174G, M175P, P177W
B26: L5 isolate with insertion SEQ ID NO: 428 (other)
chain: B1 chain with P173E, H174M, M175E, F176N, P177A
B27: L5 isolate with insertion SEQ ID NO: 411 (other)
chain: B1 chain with P173N, H174M, M175L, F176W, P177G, W178S
B28: L5 isolate with insertion SEQ ID NO: 396 (other)
chain: B1 chain with P173R, H174E, M175P, F176H, W178F
B29: L5 isolate with insertion SEQ ID NO: 414 (other)
chain: B1 chain with P173V, H174N, M175T, F176W, P177W, W178S
B30: L5 isolate with insertion SEQ ID NO: 430 (other)
chain: B1 chain with P173H, H174D, M175P, F176E, W178F
B31: L5 isolate with insertion SEQ ID NO: 422 (other)
chain: B1 chain with P173Q, M175S, F176P, W178L
B32: L5 isolate with insertion SEQ ID NO: 424 (other)
chain: B1 chain with P173Q, H174Y, M175P, F176R, P177K, W178L
B33: L5 isolate with insertion SEQ ID NO: 436 (other)
chain: B1 chain with P173A, H174E, M175R, F176Q, P177Y, W178Y
B34: L5 isolate with insertion SEQ ID NO: 393 (other)
chain: B1 chain with P173G, M175G, F176W, P177I, W178F
B35: L5 isolate with insertion SEQ ID NO: 421 (other)
chain: B1 chain with P173N, H174P, M175H, F176R, P177T, W178P
B36: L5 isolate with insertion SEQ ID NO: 397 (other)
chain: B1 chain with H174F, M175E, P177T, W178Q
B37: L5 isolate with insertion SEQ ID NO: 433 (other)
chain: B1 chain with P173E, H174I, M175P, F176H, P177S, W178F
B38: L5 isolate with insertion SEQ ID NO: 434 (other)
chain: B1 chain with P173M, H174P, M175Y, F176E, P177M, W178H
B39: L5 isolate with insertion SEQ ID NO: 405 (other)
chain: B1 chain with P173Q, M175H, F176I, P177M, W178Q
B40: L5 isolate with insertion SEQ ID NO: 438 (other)
chain: B1 chain with P173K, H174S, F176I, P177S, W178M
B41: L6B isolate with insertion SEQ ID NO: 455 (other)
chain: EPKSCDKTHTCPPCPAPELLGGPSVFLFPPKPKDTLMISRTPEVTCVVVDVSHEDPEVKFNWYVDGVEVHNAKTKPREEQYNSTYRVVSVLTVLHQDWLNGKEYKCKVSNKALPAPIEKTISKAKGQPREPQVYTLPPSRDELGGCVSAATSRTCGGTKNQVSLTCLVKGFYPSDIAVEWESNGQPENNYKTTPPVLDSDGSFFLYSKLTVDKSRWQQGNVFSCSVMHEALHNHYTQKSLSLSPGK
B42: L5 isolate with insertion SEQ ID NO: 437 (other)
chain: B1 chain with P173N, H174V, M175L, F176D, P177L, W178F
B43: L5 isolate with insertion SEQ ID NO: 401 (other)
chain: B1 chain with P173M, H174V, M175P, P177S, W178M
B44: L5 isolate with insertion SEQ ID NO: 442 (other)
chain: B1 chain with P173N, H174V, M175L, F176D, P177L, W178F
B45: L5 isolate with insertion SEQ ID NO: 407 (other)
chain: B1 chain with P173M, H174V, M175P, P177S, W178M

target: T1, human neonatal Fc receptor (hFcRn) (human, UniProt P55899 24-290; P61769 21-119); test: phage ELISA pH 6
T1 construct: Biotinylated in the ELISA, Octet and yeast assays; also called human FcRn; huFcRn
Experimental: (§1) Approximately 100 μL of biotinylated human FcRn at 2 μg/mL was added to the wells of MAXISORP™ plates coated with 10 μg/mL streptavidin. After washing with PBS plus 0.05% Tween 20 (PBST) five times, phage from the overnight cultures in MES buffer at pH 6.0 or pH 7.4 were added to the plates and incubated at room temperature for 1 hr. A horseradish peroxidase (HRP)-conjugated anti-M13 antibody was used to detect the binding phage, and the plates were scored by a microtiter plate reader using a wavelength in the visible range.
(§2) Binding was assessed by a quantitative enzyme-linked immunoadsorbent assay (ELISA). The ELISA scores reflect binding affinity, with higher scores meaning higher affinity. Typically, scores higher than about 3˜5 indicate binding above background. For library L5, the insertions are between the N169 and G170 according to the numbering in FIG. 2. For libraries 6A and 6B, the insertions are between L143 and T144 according to the numbering in FIG. 2.
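Further: higher score means stronger binding and above about 3 to 5 exceeds background.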

Row | ELISA score | Binder
1 | 95.1 | B1
2 | 63.6 | B2
3 | 55.6 | B3
4 | 58.3 | B4
5 | 59.2 | B5
6 | 57.7 | B6
7 | 60.2 | B7
8 | 73.1 | B8
9 | 67.4 | B9
10 | 61.2 | B10
11 | 65.6 | B11
12 | 61 | B12
13 | 75.5 | B13
14 | 61 | B14
15 | 74.8 | B15
16 | 62.2 | B16
17 | 57.7 | B17
18 | 86.3 | B18
19 | 86.5 | B19
20 | 74.2 | B20

Row | ELISA score | Binder
21 | 63 | B21
22 | 72 | B22
23 | 71.2 | B23
24 | 89.5 | B24
25 | 59.2 | B25
26 | 58.5 | B26
27 | 68.6 | B27
28 | 88.6 | B28
29 | 65.2 | B29
30 | 57.7 | B30
31 | 60.3 | B31
32 | 59.6 | B32
33 | 55.5 | B33
34 | 92.1 | B34
35 | 60.9 | B35
36 | 87.3 | B36
37 | 57.2 | B37
38 | 56.7 | B38
39 | 73.4 | B39
40 | 55.2 | B40

target: T1, human neonatal Fc receptor (hFcRn); test: phage ELISA pH 7.4
Experimental: as §1, §2

Row | ELISA score | Binder
41 | 0.3 | B41
42 | 15.1 | B1
43 | 0.7 | B2
44 | 0.7 | B3
45 | 0.3 | B4
46 | 0.3 | B42
47 | 0.3 | B5
48 | 0.5 | B6
49 | 0.4 | B7
50 | 0.4 | B8
51 | 0.4 | B9
52 | 0.6 | B43
53 | 0.4 | B10
54 | 0.5 | B11
55 | 0.3 | B12
56 | 0.3 | B13
57 | 0.5 | B14
58 | 0.5 | B15
59 | 0.3 | B44
60 | 0.3 | B16
61 | 0.5 | B17
62 | 1.6 | B18
63 | 0.4 | B19

Row | ELISA score | Binder
64 | 2.3 | B20
65 | 0.5 | B21
66 | 0.4 | B22
67 | 0.7 | B23
68 | 23.5 | B24
69 | 0.3 | B25
70 | 0.5 | B26
71 | 0.6 | B27
72 | 8.9 | B28
73 | 0.3 | B29
74 | 0.6 | B45
75 | 0.4 | B30
76 | 0.3 | B31
77 | 0.3 | B32
78 | 1.4 | B33
79 | 28.4 | B34
80 | 0.3 | B35
81 | 1.8 | B36
82 | 0.7 | B37
83 | 0.4 | B38
84 | 0.4 | B39
85 | 0.2 | B40
